In patent US20250277048A1 (Regeneron, published 2025):
Values belong to the binder of their own block, whether it stands above or below them.

How the values were obtained:
[1] = target: T1, human CD40 (hCD40) expressed on cells (human, UniProt P25942 21-277); assay: cell-based or functional assay
[2] = target: T1, human CD40 (hCD40) expressed on cells; assay: cell-based or functional assay; remark: listed apart in the source
[3] = target: T1, human CD40 (hCD40) expressed on cells; assay: cell-based or functional assay; remark: listed apart in the source
[4] = target: T1, human CD40 (hCD40) expressed on cells; assay: cell-based or functional assay; remark: listed apart in the source
[5] = target: T1, human CD40 (hCD40) expressed on cells; assay: cell-based or functional assay; remark: listed apart in the source
[6] = target: T1, human CD40 (hCD40) expressed on cells; assay: cell-based or functional assay; remark: listed apart in the source
[7] = target: T1, human CD40 (hCD40) expressed on cells; assay: cell-based or functional assay; remark: listed apart in the source
[8] = target: T1, human CD40 (hCD40) expressed on cells; assay: cell-based or functional assay; remark: listed apart in the source
[9] = target: T1, human CD40 (hCD40) expressed on cells; assay: cell-based or functional assay; remark: listed apart in the source
[10] = target: T1, human CD40 (hCD40) expressed on cells; assay: flow cytometry, Ramos 2G6.4C10 cells
Protocol: (§1) Cells were washed with 2% FBS (w/v) in 1×PBS (flow cytometry staining buffer) by centrifugation with benchtop Centrifuge 5810R (Eppendorf®, Hamburg, Germany). Cells were incubated for 30 minutes at 4° C. with serial dilutions of following antibodies ranging from 1.7 pM to 100 nM in flow cytometry staining buffer (1) anti-CD40×CD40 bispecific antibodies, or (2) parental anti-CD40 antibodies (bivalent antibodies comprising 2 fragment antigen-binding [Fab] arms identical to one of the two anti-CD40 Fab of bispecific anti-CD40×CD40 antibodies), or (3) anti-CD40×Irrelevant antibodies (bivalent antibodies that incorporate one Fab arm identical to one of anti-CD40 Fab of anti-CD40×CD40 antibodies and another Fab arm specific to an irrelevant antigen, i.e. birch pollen main allergen Bet v1), or (4) human IgG4 isotype control antibodies with Fc mutation. After washing, cell bound antibodies were detected with 2.5 μg/ml Allophycocyanin (APC)-conjugated goat anti-human IgG antibody specific for the Fcγ fragment (Jackson Immunoresearch, West Grove, PA) for 30 minutes at 4° C. Cells were washed and subsequently fixed with 50% solution of Cytofix™ Fixation Buffer (BD, Franklin Lakes, NJ) in flow cytometry staining buffer for 20 minutes at room temperature. Cells were washed and resuspended in flow cytometry staining buffer and stored at 4° C. for downstream flow cytometry analysis.
(§2) Acquisition of fluorescence signals were recorded on the ZE5 Cell Analyzer (Bio-Rad, Hercules, CA) according to the manufacturer's recommended procedure and flow cytometry data analysis was performed using the open-source R packages flowCore, flowStats, flowDensity, ggCyto, and flowAI. Multiplexed samples were deconvoluted and individual cell populations were identified based on their unique CellTrace™ fluorescence signature. APC Median Fluorescence intensity (MFI) was recorded to indicate the binding intensity of each antibody over a range of concentrations. Antibodies with MFI greater than 1500 at the highest tested concentration (100 nM) were classified as specific binders. In addition, direct binding signals (APC MFI) were analyzed as a function of the antibody concentration and data were fitted with a sigmoidal (four-parameter logistic) dose-response model using GraphPad Prism™ software.

[11] = target: T1, human CD40 (hCD40) expressed on cells; assay: flow cytometry, HEK293/D9/hCD40 cells
Protocol: as §1, §2

[12] = target: T2, Macaca fascicularis CD40 (mfCD40) expressed on HEK293/D9/mfCD40 cells (Macaca fascicularis, UniProt G7PG38 21-278); assay: flow cytometry, HEK293/D9/mfCD40 cells
T2 construct: whole, on cells; also called monkey CD40
Protocol: as §1, §2

[13] = target: T3, human CD40 extracellular domain expressed with a C-terminal myc-myc-hexahistidine tag (human); assay: ELISA blocking of 40 nM hCD40-mmH binding to 9His-hCD40L
T3 construct: also called hCD40-MMH; hCD40-mmH
T3 sequence (chain, as listed by the source limits assumed): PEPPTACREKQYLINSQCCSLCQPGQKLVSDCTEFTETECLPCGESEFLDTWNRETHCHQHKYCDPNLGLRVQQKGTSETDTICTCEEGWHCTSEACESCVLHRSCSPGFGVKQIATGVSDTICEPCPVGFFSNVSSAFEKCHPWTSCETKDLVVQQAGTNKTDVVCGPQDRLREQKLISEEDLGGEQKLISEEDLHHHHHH
From the text: An ELISA-based blocking assay was developed to determine the ability of C40×CD40 bispecific antibodies to block the binding of the hCD40 monomer to plate-coated hCD40L. The recombinant human CD40-mmH protein (hCD40-MMH; REGN3094; SEQ ID NO: 53) used in the experiments comprises a portion of the human CD40 extracellular domain (amino acids P20-R193) fused to 2×Myc peptide and 6×histadine (SEQ ID NO: 1110) at the C-terminus of human CD40, and the human CD40L (accession #NM_000074.2) with amino acids E108-L261 of the extracellular domain with 9×His-2×(SGGG)-IGER at the N-terminus (9His-hCD40L) was commercially obtained from Biolegend.
In the blocking assay, 9His-hCD40L was passively absorbed at a concentration of 5 μg/mL in PBS on a 96-well microtiter plate overnight at 4° C. […] In a separate 96-well microtiter plate, a fixed amount of 40 nM hCD40-mmH was pre-mixed with one of the following antibodies, at concentrations ranging from 977 pM to 1 μM in PBS+0.5% BSA: (1) CD40×CD40 bispecific antibodies (REGN16431, REGN16432, REGN16634, and REGN16335); (2) parental CD40 mAbs (bivalent antibodies comprising 2 fragment antigen-binding [Fab] arms identical to one of anti-CD40 Fab of CD40×CD40 antibodies); (3) CD40×Irrelevant antibodies (bivalent antibodies that incorporate one Fab arm identical to one of anti-CD40 Fab of CD40×CD40 antibodies and another Fab arm specific to an irrelevant antigen); and (4) human IgG4 with Fc mutation isotype control antibodies (REGN7540 and REGN4513). The fixed concentration of hCD40-mmH was selected to be near the concentration (EC₅₀ value) that generated 50% of the maximal binding to the plate-adhered 9His-hCD40L. After one-hour incubation, the antibody-antigen complexes were transferred to the microtiter plate coated with 9His-hCD40L. After one hour incubation at room temperature, the plates were washed, and plate-bound hCD40-mmH protein was detected with horseradish peroxidase (HRP) conjugated goat anti-c-Myc antibody. The plates were then developed using TMB substrate solution (BD Biosciences) according to the manufacturer's recommended procedure and the absorbance at 450 nm (OD₄₅₀) was measured on a SpectraMax i3×plate reader.

T1 sequence (P25942 21-277): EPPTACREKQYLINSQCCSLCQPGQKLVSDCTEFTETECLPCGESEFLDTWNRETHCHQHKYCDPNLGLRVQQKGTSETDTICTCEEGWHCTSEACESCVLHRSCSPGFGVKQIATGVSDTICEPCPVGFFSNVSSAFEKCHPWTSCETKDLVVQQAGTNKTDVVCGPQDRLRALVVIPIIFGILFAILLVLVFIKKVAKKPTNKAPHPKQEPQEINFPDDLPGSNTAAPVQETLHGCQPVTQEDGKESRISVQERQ

- IC50, 500 pM hCD40L, Ramos NFkB-luc [1]: 6.93e-11 M
- Max % activation, no ligand, Ramos NFkB-luc [1]: 6%
- Max % inhibition, 500 pM hCD40L, Ramos NFkB-luc [1]: 91%
- IC50, 900 pM hCD40L, Raji NFkB-luc [2]: 5.76e-11 M
- Max % activation, no ligand, Raji NFkB-luc [2]: 13%
- Max % inhibition, 900 pM hCD40L, Raji NFkB-luc [2]: 113%
- IC50, 10 nM hCD40L, THP-1 NFkB-luc [3]: 0.553 nM
- Max % activation, no ligand, THP-1 NFkB-luc [3]: 1%
- Max % inhibition, 10 nM hCD40L, THP-1 NFkB-luc [3]: 98%
- % max blockade relative to no mAb, IL-6, donor 1 [4]: 84.5%
- % max blockade relative to no mAb, IL-6, donor 2 [4]: 92%
- % max blockade relative to no mAb, IL-6, donor 3 [4]: 92%
- % max blockade relative to no mAb, IL-10, donor 1 [5]: 74.2%
- % max blockade relative to no mAb, IL-10, donor 2 [5]: 91.4%
- % max blockade relative to no mAb, IL-10, donor 3 [5]: 92.4%
- % max blockade relative to no mAb, TNFa, donor 1 [6]: 44%
- % max blockade relative to no mAb, TNFa, donor 2 [6]: 63.5%
- % max blockade relative to no mAb, TNFa, donor 3 [6]: 68.5%
- % max blockade relative to no mAb, IL-6, assay #2 donor 1 [7]: 88.9%
- % max blockade relative to no mAb, IL-6, assay #2 donor 2 [7]: 89.2%
- % max blockade relative to no mAb, IL-10, assay #2 donor 1 [8]: 87.7%
- % max blockade relative to no mAb, IL-10, assay #2 donor 2 [8]: 89.9%
- % max blockade relative to no mAb, TNFa, assay #2 donor 1 [9]: 62.8%
- % max blockade relative to no mAb, TNFa, assay #2 donor 2 [9]: 51.1%
- EC50 [10]: 2 nM
- MFI at 100 nM [10]: 3760 MFI
- EC50 [11]: 2 nM
- MFI at 100 nM [11]: 29000 MFI
- EC50 [12]: 9.1 nM
- MFI at 100 nM [12]: 41700 MFI
- % Blocking at 1 uM mAb [13]: 98%
- IC50 [13]: 32 nM
B1: REGN16334 (bispecific antibody, human IgG4 S228P, kappa)
heavy 1: QLQLQESGPGLVRPSETLSLTCSVSGASMNTNNYYWGWIRQPPGKGLEWIGSGYYNGNTYYNPSLKSRVTISVDTSKNQFSLKLNSVTAADTAVYYCARQTPPRIIGSPNIWGQGTMVTVSSASTKGPSVFPLAPCSRSTSESTAALGCLVKDYFPEPVTVSWNSGALTSGVHTFPAVLQSSGLYSLSSVVTVPSSSLGTKTYTCNVDHKPSNTKVDKRVESKYGPPCPPCPAPGGGGPSVFLFPPKPKDTLMISRTPEVTCVVVDVSQEDPEVQFNWYVDGVEVHNAKTKPREEQFNSTYRVVSVLTVLHQDWLNGKEYKCKVSNKGLPSSIEKTISKAKGQPREPQVYTLPPSQEEMTKNQVSLTCLVKGFYPSDIAVEWESNGQPENNYKTTPPVLDSDGSFFLYSRLTVDKSRWQEGNVFSCSVMHEALHNHYTQKSLSLSLGK
heavy 2: EVQLVESGGGLVQPGGSLRLSCAASGFTFGSYGMAWVRQAPGKGLEWVSAISGSGDYTNYADSVKRRFTISRDNSKNTLYLQMSSLRAEDTAVYYCAKEKTGTTGYLYSGMDVWGQGTTVTVSSASTKGPSVFPLAPCSRSTSESTAALGCLVKDYFPEPVTVSWNSGALTSGVHTFPAVLQSSGLYSLSSVVTVPSSSLGTKTYTCNVDHKPSNTKVDKRVESKYGPPCPPCPAPGGGGPSVFLFPPKPKDTLMISRTPEVTCVVVDVSQEDPEVQFNWYVDGVEVHNAKTKPREEQFNSTYRVVSVLTVLHQDWLNGKEYKCKVSNKGLPSSIEKTISKAKGQPREPQVYTLPPSQEEMTKNQVSLTCLVKGFYPSDIAVEWESNGQPENNYKTTPPVLDSDGSFFLYSRLTVDKSRWQEGNVFSCSVMHEALHNRFTQKSLSLSPGK
light: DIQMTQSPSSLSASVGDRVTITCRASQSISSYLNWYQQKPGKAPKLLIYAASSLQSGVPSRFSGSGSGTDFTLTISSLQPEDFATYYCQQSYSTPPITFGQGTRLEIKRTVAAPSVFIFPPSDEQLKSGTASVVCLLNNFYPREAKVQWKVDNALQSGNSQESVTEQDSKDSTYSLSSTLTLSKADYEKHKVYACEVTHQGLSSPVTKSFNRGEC
notes: D1 arm from 21519P2, D2 arm from 21520P2, common light chain; also called CD40xCD40 (21519 x 21520)

- IC50, 500 pM hCD40L, Ramos NFkB-luc [1]: 3.86e-11 M
- Max % activation, no ligand, Ramos NFkB-luc [1]: 5%
- Max % inhibition, 500 pM hCD40L, Ramos NFkB-luc [1]: 93%
- IC50, 900 pM hCD40L, Raji NFkB-luc [2]: 4.94e-11 M
- Max % activation, no ligand, Raji NFkB-luc [2]: 9%
- Max % inhibition, 900 pM hCD40L, Raji NFkB-luc [2]: 102%
- IC50, 10 nM hCD40L, THP-1 NFkB-luc [3]: 0.221 nM
- Max % activation, no ligand, THP-1 NFkB-luc [3]: 3%
- Max % inhibition, 10 nM hCD40L, THP-1 NFkB-luc [3]: 98%
- % max blockade relative to no mAb, IL-6, donor 1 [4]: 83.2%
- % max blockade relative to no mAb, IL-6, donor 2 [4]: 91.4%
- % max blockade relative to no mAb, IL-6, donor 3 [4]: 91.4%
- % max blockade relative to no mAb, IL-10, donor 1 [5]: 78.5%
- % max blockade relative to no mAb, IL-10, donor 2 [5]: 93.6%
- % max blockade relative to no mAb, IL-10, donor 3 [5]: 89.8%
- % max blockade relative to no mAb, TNFa, donor 1 [6]: 45%
- % max blockade relative to no mAb, TNFa, donor 2 [6]: 64.7%
- % max blockade relative to no mAb, TNFa, donor 3 [6]: 61.6%
- % max blockade relative to no mAb, IL-6, assay #2 donor 1 [7]: 88.4%
- % max blockade relative to no mAb, IL-6, assay #2 donor 2 [7]: 87%
- % max blockade relative to no mAb, IL-10, assay #2 donor 1 [8]: 88.5%
- % max blockade relative to no mAb, IL-10, assay #2 donor 2 [8]: 87.8%
- % max blockade relative to no mAb, TNFa, assay #2 donor 1 [9]: 62.4%
- % max blockade relative to no mAb, TNFa, assay #2 donor 2 [9]: 52.5%
- EC50 [10]: 1 nM
- MFI at 100 nM [10]: 3750 MFI
- EC50 [11]: 1.6 nM
- MFI at 100 nM [11]: 28900 MFI
- EC50 [12]: 2.4 nM
- MFI at 100 nM [12]: 47300 MFI
- % Blocking at 1 uM mAb [13]: 96%
- IC50 [13]: 32 nM
B2: REGN16335 (bispecific antibody, human IgG4 S228P, kappa)
heavy 1: EVQLVESGGGLVQPGGSLRLSCAASGFTFSSYAMNWVRQAPGKGLEWVSIISGTIGKTYYADSVKGRFTISRDNSKNTLYLQMNSLRGEDTAVYYCAKDTERDITGSPFDYWGQGTLVTVSSASTKGPSVFPLAPCSRSTSESTAALGCLVKDYFPEPVTVSWNSGALTSGVHTFPAVLQSSGLYSLSSVVTVPSSSLGTKTYTCNVDHKPSNTKVDKRVESKYGPPCPPCPAPGGGGPSVFLFPPKPKDTLMISRTPEVTCVVVDVSQEDPEVQFNWYVDGVEVHNAKTKPREEQFNSTYRVVSVLTVLHQDWLNGKEYKCKVSNKGLPSSIEKTISKAKGQPREPQVYTLPPSQEEMTKNQVSLTCLVKGFYPSDIAVEWESNGQPENNYKTTPPVLDSDGSFFLYSRLTVDKSRWQEGNVFSCSVMHEALHNHYTQKSLSLSLGK
heavy 2: B1 heavy 2
light: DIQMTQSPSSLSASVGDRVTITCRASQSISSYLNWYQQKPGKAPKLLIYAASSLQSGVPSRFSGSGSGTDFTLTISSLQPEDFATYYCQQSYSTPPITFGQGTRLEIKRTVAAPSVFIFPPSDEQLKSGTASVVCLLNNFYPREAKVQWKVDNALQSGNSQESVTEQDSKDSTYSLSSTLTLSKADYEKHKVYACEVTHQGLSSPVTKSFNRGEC
notes: D1 arm from 30027P2, D2 arm from 21520P2, common light chain; also called CD40xCD40 (30027 x 21520)
